Test results from article PMC8900817, “Highlighting the factors governing transglycosylation in the GH5_5 endo-1,4-β-glucanase RBcel1” (Acta Crystallographica. Section D, Structural Biology, 2022).

Assays:
[1] = molecular target: T1, RBcel1 (uncultured bacterium, UniProt Z9EI17H729, E135Q); assay: X-ray crystal structure, […] Å; assay type: binding; details: co-crystal with 1 mM G3, pH 7.4; subsites +1 to +3 (monomer A) and -4 to -2 (monomer B)
T1 construct: 321 residues
T1 sequence (Z9EI17H729 1-321 E135Q): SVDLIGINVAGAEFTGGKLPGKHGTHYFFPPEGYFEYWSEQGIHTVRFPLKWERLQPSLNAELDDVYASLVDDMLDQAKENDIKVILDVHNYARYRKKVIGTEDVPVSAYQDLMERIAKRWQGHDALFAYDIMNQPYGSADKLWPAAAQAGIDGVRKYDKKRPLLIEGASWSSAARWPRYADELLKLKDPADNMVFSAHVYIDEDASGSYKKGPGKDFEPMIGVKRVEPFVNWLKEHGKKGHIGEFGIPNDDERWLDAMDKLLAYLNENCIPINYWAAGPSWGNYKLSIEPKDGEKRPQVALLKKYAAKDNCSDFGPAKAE

[2] = molecular target: T2, RBcel1 (uncultured bacterium, UniProt Z9EI17H729, Y201F); assay: X-ray crystal structure, […] Å; details: co-crystal with 1 mM G3, pH 7; covalent to Glu245 (monomer D, occupancy 0.13); also +1 to +3 subsites (monomer C)
T2 sequence (Z9EI17H729 1-321 Y201F): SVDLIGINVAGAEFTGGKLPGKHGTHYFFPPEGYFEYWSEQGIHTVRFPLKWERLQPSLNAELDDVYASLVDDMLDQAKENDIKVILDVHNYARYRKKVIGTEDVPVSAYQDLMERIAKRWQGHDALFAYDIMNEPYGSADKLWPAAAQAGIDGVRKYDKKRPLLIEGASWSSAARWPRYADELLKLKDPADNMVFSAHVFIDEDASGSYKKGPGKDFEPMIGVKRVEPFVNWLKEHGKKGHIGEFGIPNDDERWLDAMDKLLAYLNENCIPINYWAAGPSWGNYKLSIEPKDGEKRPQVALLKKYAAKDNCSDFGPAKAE

[3] = substrate: O=[N+]([O-])c1ccc(O[C@@H]2O[C@H](CO)[C@@H](O[C@@H]3O[C@H](CO)[C@@H](O[C@@H]4O[C@H](CO)[C@@H](O)[C@H](O)[C@H]4O)[C@H](O)[C@H]3O)[C@H](O)[C@H]2O)c(Cl)c1; assay: purified protein; assay type: biochemical, uncultured bacterium; details: 20 mM sodium phosphate pH 6.5, 37°C
[4] = substrate: O=[N+]([O-])c1ccc(O[C@@H]2O[C@H](CO)[C@@H](O[C@@H]3O[C@H](CO)[C@@H](O[C@@H]4O[C@H](CO)[C@@H](O[C@@H]5O[C@H](CO)[C@@H](O[C@@H]6O[C@H](CO)[C@@H](O)[C@H](O)[C@H]6O)[C@H](O)[C@H]5O)[C@H](O)[C@H]4O)[C@H](O)[C@H]3O)[C@H](O)[C@H]2O)c(Cl)c1; assay: purified protein; assay type: biochemical, uncultured bacterium; details: 20 mM sodium phosphate pH 6.5, 37°C, apparent parameters, printed kcat disagrees with printed kcat/Km (tenfold)
[5] = substrate: O=[N+]([O-])c1ccc(O[C@@H]2O[C@H](CO)[C@@H](O[C@@H]3O[C@H](CO)[C@@H](O[C@@H]4O[C@H](CO)[C@@H](O[C@@H]5O[C@H](CO)[C@@H](O)[C@H](O)[C@H]5O)[C@H](O)[C@H]4O)[C@H](O)[C@H]3O)[C@H](O)[C@H]2O)c(Cl)c1; assay: purified protein; assay type: biochemical, uncultured bacterium; details: 20 mM sodium phosphate pH 6.5, 37°C, apparent parameters, text b31 prints µM, table mM (agrees with kcat/Km)
[6] = 36 µM enzyme, methods name the substrate ClPNP β-G1, results ClPNP β-G3
[7] = apparent parameters, text b31 prints µM, table mM (agrees with kcat/Km)
[8] = 22 µM enzyme, methods name the substrate ClPNP β-G1, results ClPNP β-G3

With OC[C@H]1O[C@@H](O[C@H]2[C@H](O)[C@@H](O)[C@H](O[C@H]3[C@H](O)[C@@H](O)C(O)O[C@@H]3CO)O[C@@H]2CO)[C@H](O)[C@@H](O)[C@@H]1O (stereo partly shown) [G3, cellotriose] the “X-ray crystal structure, 1.73 Å” value [1] was “each in complex with a differently positioned G3 molecule” and the “X-ray crystal structure, 1.75 Å” value [2] was “G3 and G4 were placed in the negative subsites”.

B1: RBcel1 (uncultured bacterium; E135Q) (protein)
chain: SVDLIGINVAGAEFTGGKLPGKHGTHYFFPPEGYFEYWSEQGIHTVRFPLKWERLQPSLNAELDDVYASLVDDMLDQAKENDIKVILDVHNYARYRKKVIGTEDVPVSAYQDLMERIAKRWQGHDALFAYDIMNQPYGSADKLWPAAAQAGIDGVRKYDKKRPLLIEGASWSSAARWPRYADELLKLKDPADNMVFSAHVYIDEDASGSYKKGPGKDFEPMIGVKRVEPFVNWLKEHGKKGHIGEFGIPNDDERWLDAMDKLLAYLNENCIPINYWAAGPSWGNYKLSIEPKDGEKRPQVALLKKYAAKDNCSDFGPAKAE
notes: 321 residues
With B1 the Km [3, 6] was 263 ± 41 µM and the kcat [3, 6] was 0.219 ± 0.009 × 10^-3 min^-1.

B2: RBcel1 (uncultured bacterium) (protein)
chain: SVDLIGINVAGAEFTGGKLPGKHGTHYFFPPEGYFEYWSEQGIHTVRFPLKWERLQPSLNAELDDVYASLVDDMLDQAKENDIKVILDVHNYARYRKKVIGTEDVPVSAYQDLMERIAKRWQGHDALFAYDIMNEPYGSADKLWPAAAQAGIDGVRKYDKKRPLLIEGASWSSAARWPRYADELLKLKDPADNMVFSAHVYIDEDASGSYKKGPGKDFEPMIGVKRVEPFVNWLKEHGKKGHIGEFGIPNDDERWLDAMDKLLAYLNENCIPINYWAAGPSWGNYKLSIEPKDGEKRPQVALLKKYAAKDNCSDFGPAKAE
notes: 321 residues
With B2 the Km [4] was 340 ± 50 µM, the Km [5] was 300 ± 30 µM and the kcat [5] was 0.58 ± 0.01 s⁻¹. For the same molecule, the kcat/Km [5] was 1880 ± 190 M⁻¹ s⁻¹, the Km [3, 7] was 2370 ± 260 µM and the kcat [3, 7] was 0.52 ± 0.02 s⁻¹. For the same molecule, the kcat/Km [3, 7] was 220 ± 20 M⁻¹ s⁻¹.

B3: RBcel1 (uncultured bacterium; Y201F) (protein)
chain: SVDLIGINVAGAEFTGGKLPGKHGTHYFFPPEGYFEYWSEQGIHTVRFPLKWERLQPSLNAELDDVYASLVDDMLDQAKENDIKVILDVHNYARYRKKVIGTEDVPVSAYQDLMERIAKRWQGHDALFAYDIMNEPYGSADKLWPAAAQAGIDGVRKYDKKRPLLIEGASWSSAARWPRYADELLKLKDPADNMVFSAHVFIDEDASGSYKKGPGKDFEPMIGVKRVEPFVNWLKEHGKKGHIGEFGIPNDDERWLDAMDKLLAYLNENCIPINYWAAGPSWGNYKLSIEPKDGEKRPQVALLKKYAAKDNCSDFGPAKAE
notes: 321 residues
In the case of B3, the Km [3, 8] is reported as 77 ± 10 µM and the kcat [3, 8] is reported as 0.194 ± 0.023 × 10^-3 min^-1.
